Data published in publication PMC2700067, “Intracellular interactions between APOBEC3G, RNA, and HIV-1 Gag: APOBEC3G multimerization is dependent on its association with RNA” (Retrovirology, 2009).
One block for each binder: values may come before it.

Key:
Test in all cases: split reporter (BiFC, NanoBiT); BiFC quantified by flow cytometry: 293T cells co-transfected with 0.25 μg of each BiFC construct and mRFP1, harvested about 14 h after transfection and fixed; percent of mRFP+ cells that are YFP+, and mean intensity of YFP+ cells
Settings in all cases: partners not purified
H65R-CY = molecular target: T1, H65R-CY (human, UniProt Q9HC16 1-384, H65R)
T1 construct: APOBEC3G (A3G), human, CD1 mutant H65R; as A3G-CY with the mutation; also called CD1 mutant H65R of A3G-CY; source: HeLa and 293T cells, transfected, in living cells; 293T, transfected, in lysate (co-IP); not shown: CY (YFP residues 173-238), C-terminal, kept

F70A-CY = molecular target: T2, F70A-CY (human, UniProt Q9HC16 1-384, F70A)
T2 construct: APOBEC3G (A3G), human, CD1 mutant F70A; as A3G-CY with the mutation; also called CD1 mutant F70A of A3G-CY; source: HeLa and 293T cells, transfected, in living cells; 293T, transfected, in lysate (co-IP); not shown: CY (YFP residues 173-238), C-terminal, kept

Y91A-CY = molecular target: T3, Y91A-CY (human, UniProt Q9HC16 1-384, Y91A)
T3 construct: APOBEC3G (A3G), human, CD1 mutant Y91A; as A3G-CY with the mutation; also called CD1 mutant Y91A of A3G-CY; source: HeLa and 293T cells, transfected, in living cells; not shown: CY (YFP residues 173-238), C-terminal, kept

percent of mRFP+ cells that are YFP+ (BiFC) (H65R-CY): < 0.1%
B1: H65R-NY (natural protein, human, UniProt Q9HC16 1-384, looked up)
chain: MKPHFRNTVERMYRDTFSYNFYNRPILSRRNTVWLCYEVKTKGPSRPPLDAKIFRGQVYSELKYRPEMRFFHWFSKWRKLHRDQEYEVTWYISWSPCTKCTRDMATFLAEDPKVTLTIFVARLYYFWDPDYQEALRSLCQKRDGPRATMKIMNYDEFQHCWSKFVYSQRELFEPWNNLPKYYILLHIMLGEILRHSMDPPTFTFNFNNEPWVRGRHETYLCYEVERMHNDTWVLLNQRRGFLCNQAPHKHGFLEGRHAELCFLDVIPFWKLDLDQDYRVTCFTSWSPCFSCAQEMAKFISKNKHVSLCIFTARIYDDQGRCQEGLRTLAEAGAKISIMTYSEFKHCWDTFVDHQGCPFQPWDGLDEHSQDLSGRLRAILQNQEN
notes: APOBEC3G (A3G), human, CD1 mutant H65R; as A3G-NY with the mutation; also called CD1 mutant H65R of A3G-NY; source: HeLa and 293T cells, transfected, in living cells; not shown: NY (YFP residues 1-172), C-terminal, kept

percent of mRFP+ cells that are YFP+ (BiFC) (F70A-CY): < 0.1%
B2: F70A-NY (natural protein, human, UniProt Q9HC16 1-384, looked up)
chain: MKPHFRNTVERMYRDTFSYNFYNRPILSRRNTVWLCYEVKTKGPSRPPLDAKIFRGQVYSELKYHPEMRAFHWFSKWRKLHRDQEYEVTWYISWSPCTKCTRDMATFLAEDPKVTLTIFVARLYYFWDPDYQEALRSLCQKRDGPRATMKIMNYDEFQHCWSKFVYSQRELFEPWNNLPKYYILLHIMLGEILRHSMDPPTFTFNFNNEPWVRGRHETYLCYEVERMHNDTWVLLNQRRGFLCNQAPHKHGFLEGRHAELCFLDVIPFWKLDLDQDYRVTCFTSWSPCFSCAQEMAKFISKNKHVSLCIFTARIYDDQGRCQEGLRTLAEAGAKISIMTYSEFKHCWDTFVDHQGCPFQPWDGLDEHSQDLSGRLRAILQNQEN
notes: APOBEC3G (A3G), human, CD1 mutant F70A; as A3G-NY with the mutation; also called CD1 mutant F70A of A3G-NY; source: HeLa and 293T cells, transfected, in living cells; not shown: NY (YFP residues 1-172), C-terminal, kept

percent of mRFP+ cells that are YFP+ (BiFC) (Y91A-CY): < 0.1%
B3: Y91A-NY (natural protein, human, UniProt Q9HC16 1-384, looked up)
chain: MKPHFRNTVERMYRDTFSYNFYNRPILSRRNTVWLCYEVKTKGPSRPPLDAKIFRGQVYSELKYHPEMRFFHWFSKWRKLHRDQEYEVTWAISWSPCTKCTRDMATFLAEDPKVTLTIFVARLYYFWDPDYQEALRSLCQKRDGPRATMKIMNYDEFQHCWSKFVYSQRELFEPWNNLPKYYILLHIMLGEILRHSMDPPTFTFNFNNEPWVRGRHETYLCYEVERMHNDTWVLLNQRRGFLCNQAPHKHGFLEGRHAELCFLDVIPFWKLDLDQDYRVTCFTSWSPCFSCAQEMAKFISKNKHVSLCIFTARIYDDQGRCQEGLRTLAEAGAKISIMTYSEFKHCWDTFVDHQGCPFQPWDGLDEHSQDLSGRLRAILQNQEN
notes: APOBEC3G (A3G), human, CD1 mutant Y91A; as A3G-NY with the mutation; also called CD1 mutant Y91A of A3G-NY; source: HeLa and 293T cells, transfected, in living cells; not shown: NY (YFP residues 1-172), C-terminal, kept
